Biological target: T1, C-terminal domain (CTD) of ARF5-FLucC (Arabidopsis, UniProt P93024 793-902)
T1 construct: In the ARF-ARF tests the same CTD stood both as ARFCTD-FLucC and as ARFCTD-FLucN; one molecule for both; also called ARF5CTD-FLucC; auxin response factor 5; source: Arabidopsis mesophyll protoplasts, transfected, in living cells (SFLC) and in lysate (co-IP); not shown: FLucC (firefly luciferase aa 394-550)
T1 sequence (looked up): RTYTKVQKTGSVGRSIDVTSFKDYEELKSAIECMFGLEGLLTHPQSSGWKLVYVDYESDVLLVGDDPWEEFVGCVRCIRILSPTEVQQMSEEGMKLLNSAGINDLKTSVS
Assay: split reporter (BiFC, NanoBiT); SFLC in living Arabidopsis mesophyll protoplasts: Aux/IAA-FLucN or MYB30-FLucN co-expressed with ARFCTD-FLucC or Aux/IAA-FLucC for 6 hr; 10 µg of each construct, 2×10^4 cells, 96-well plate, D-luciferin; relative activity standardised against ARF5CTD-FLucC + IAA28-FLucN
Settings: partners not purified

B1: IAA28-FLucN (natural protein, Arabidopsis, UniProt Q9XFM0 1-175, looked up)
chain: MEEEKRLELRLAPPCHQFTSNNNINGSKQKSSTKETSFLSNNRVEVAPVVGWPPVRSSRRNLTAQLKEEMKKKESDEEKELYVKINMEGVPIGRKVNLSAYNNYQQLSHAVDQLFSKKDSWDLNRQYTLVYEDTEGDKVLVGDVPWEMFVSTVKRLHVLKTSHAFSLSPRKHGKE
notes: Arabidopsis transcription repressor IAA28; also called Aux/IAA-FLucN; source: Arabidopsis mesophyll protoplasts, transfected, in living cells; not shown: FLucN (firefly luciferase aa 1-398)
- restored luciferase activity, fold over the negative control MYB30-FLucN + ARF5CTD-FLucC: ~350 fold

Source: paper PMC3212559, “Large-Scale Protein-Protein Interaction Analysis in Arabidopsis Mesophyll Protoplasts by Split Firefly Luciferase Complementation” (PLoS ONE, 2011)
